Reference: patent US20120219545A1

Key:
[1] = molecular target: IgE of the serum pool of subjects 14, 47 and 48 (human); test: cell-based or functional assay
[2] = molecular target: serum IgE of subject 2 (human); test: ELISA inhibition; serum of subject 2 preincubated with rSCP, IgE binding to plate-coated boiled shrimp extract
[3] = molecular target: serum IgE of subject 43 (human); test: ELISA inhibition; serum of subject 43 preincubated with rSCP (printed 25 mg/mL), IgE binding to plate-coated boiled shrimp extract

B1: recombinant shrimp sarcoplasmic calcium-binding protein (rSCP) (protein, not shown: small tags and cut ends)
chain: MAYSWDNRVKYVVRYMYDIDNNGFLDKNDFECLAVRNTLIEGRGEFSADAYANNQKIMRNLWNEIAELADFNKDGEVTVDEFKQAVQKHCQGKKYGDFPGAFKVFIANQFKAIDVNGDGKVGLDEYRLDCITRSAFAEVKEIDDAYNKLTTEDDRKAGGLTLERYQDLYAQFISNPDESCSACYLFGPLKVVQ
With B1 as the binder, how does the mediator release (beta-hexosaminidase) from RBL-2H3 cells (% of total possible release) [1] read?
The mediator release (beta-hexosaminidase) from RBL-2H3 cells (% of total possible release) was 30.

And the mediator release (beta-hexosaminidase) from RBL-2H3 cells ([1]; scale: % of the release obtained with BS extract)?
Its mediator release (beta-hexosaminidase) from RBL-2H3 cells is 65.

What about the maximal inhibition [2] of the same binder?
The maximal inhibition was 48%.

And the maximal inhibition [3]?
The maximal inhibition was 79%.
